Experiment [1] addresses Psu (polarity suppression protein), wild type, non-His-tagged (bacteriophage P4) (UniProt P05460). In words: cross-linking.
For experiment [2] the target is unchanged. Briefly: SEC. (Size exclusion chromatography separates by hydrodynamic size, large species first.)
For experiment [3], the target named is Psu M6 mutant (P169V) (bacteriophage P4) (UniProt P05460). In words: cross-linking.
Experiment [4] concerns the target Δ-CTD10 Psu, His-tagged (pRS459, pET28b) (bacteriophage P4) (UniProt P05460). In words: cross-linking.

A word on the stoichiometry N: it is the number of molecules, sites or subunits per partner or assembly. On to “Psu (polarity suppression protein), wild type, non-His-tagged (from UniProt P05460 1-190) (natural protein)”, for which the stoichiometry N was 2 in experiment [1] and 3 in experiment [2].

In turn, “Psu M6 mutant (P169V) (from UniProt P05460 1-190) (natural protein)” registered a stoichiometry N in experiment [3] of 2.

In turn, “Δ-CTD10 Psu, His-tagged (pRS459, pET28b) (from UniProt P05460 1-180) (domain or fragment)” displayed a stoichiometry N in experiment [4] of 2.
